Data from publication PMC8752837, “Structural basis of BAK activation in mitochondrial apoptosis initiation” (Nature Communications, 2022).

How the values were obtained:
[1] = Liposome permeabilization by WT and mutant BAK proteins (autoactivation, or direct activation by BID BH3); format: biochemical; details: absence of BID BH3
Procedure: Human BAK-∆TM-His6 (BAK)[26] spontaneously permeabilizes liposomes above a certain dose (>100 nM, Fig. 1a). In these dye-release assays[43]–[46], BAK is recruited via His-tag to liposomes containing 2.5 µM of the lipid 1,2-dioleoyl-sn-glycero-3-[(N-(5-amino-1-carboxypentyl)iminodiacetic acid)succinyl] (nickel salt), DGS-NTA(Ni).
To probe autoactivation with full-length BAK, we mutated hydrophobic residues at positions (0)−(6) of the BH3 to alanine or arginine, and D83, which forms the conserved salt bridge (s) with R127, to alanine (Fig. 2a). The BH3 residues participate in autoactivation from the ligand side [hydrophobic positions (0)–(5) and D83(s)] and also from the receptor groove side [hydrophobic positions (3)–(5)] (Fig. 2a). Thus, substitutions at positions (3)–(5) should affect receptor and ligand activities and are predicted to impact BAK activation more severely than mutations of positions (0)–(2), which affect only ligand activity. […] In contrast, almost all (2)–(5) and (s) missense mutants were considerably impaired in autoactivation (Fig. 2b and Supplementary Fig. 3a). […] Despite impairment in autoactivation, all missense mutants were directly activated by BID BH3 peptide, although they induced lower level of permeabilization compared to WT BAK (Fig. 2b and Supplementary Fig. 3a).
We performed liposome permeabilization assays as previously described[43]–[46]. […] (nickel salt) [DGS NTA(Ni), 2.5 μM final concentration in each assay] (Avanti Polar Lipids). We prepared 12.5 mM fluorophore; 8-aminonaphthalene-1, 3, 6-trisulfonic acid, disodium salt (ANTS) and 45 mM quencher; p-xylene-bis-pyridiniumbromide (DPX) in LUV buffer (10 mM HEPES pH 6.8, 200 mM KCl and 5 mM MgCl2). We mixed the lipid film in ANTS/DPX solution by vortexing and sonication (~15 min) followed by extrusion through polycarbonate membrane of 2 μm pore size (Avanti Polar lipids) to generate homogenous large unilamellar vesicles (LUVs). We separated LUVs from free ANTS/DPX by S500 size exclusion chromatography and stored them at 4 °C in the dark. We prepared peptide and protein dilutions in 96-well black flat bottom plates (Costar) kept on ice. ANTS release from permeabilized liposomes causes an increase in fluorescence, which we monitored at 37 °C for 90 min using a CLARIOSTAR microplate reader (BMG Labtech) set at excitation and emission wavelengths of 360 and 530 nm, respectively. We normalized the data relative to maximum and minimum fluorescence induced by 3% CHAPS and buffer controls, respectively. We quantified liposome permabilization by integrating area under curve (AUC) of normalized traces based on the Simpson’s equation, and analyzed that data in Excel and GraphPad Prism. AUC measurements reflect the kinetic and extent of liposome permeabilization and provide quantitative means for comparison between different experimental conditions (e.g., BAK mutants with gross or partial variation in activity). Variability in permeabilization of different liposomes is common and our analyses compare among conditions investigated with the same liposomes. Although the absolute permeabilization values may differ, the trends for the same conditions are always very similar between different liposomes.

[2] = system: BCL2allKO HCT116 cells reconstituted with Dox-inducible mC-BAK; assay: Dox-induced cell death by IncuCyte imaging of SYTOX Green uptake (autoactivation); format: cell-based, human; details: mC-BAK BCL2allKO HCT116 + Dox + qVD, average, N = 3
Text: For mammalian cell culture experiments, we cloned the full length human BAK cDNA into pCR 2.1 TOPO vector, mutated BAK as needed, and PCR amplified the BAK gene for cloning into the BamHI and NotI sites of pRETROX mCherry vector for retroviral transduction. Amplification and mutagenesis primers are included in Supplementary Table 4. To test direct BAK activation and BAK autoactivation in cells, we produced cells stably expressing mCherry-human BAK (mC-BAK) ± human BID (BID) on a genetic background devoid of the entire BCL-2 family repertoire (all 17 BCL-2 genes), BCL2allKO HCT116, as described by the Xu Luo laboratory. We expressed WT and mutant mC-BAK using the doxycycline (Dox)-based inducible Tet-On 3G retroviral system from the pRetroX-TRE3G-Puro^R in BCL2allKO HCT116 cells expressing the Tet3G from pRetroX-Tet3G-Blast^R. We selected cells with puromycin (2.5 µg/mL) and blasticidin (2 µg/mL) starting at 2 days after retroviral transduction. To enrich for populations of cells that express mC-BAK, we treated cells with low Dox dose (25 ng/mL) and fluorescence-activated cell sorted (FACS) the mCherry positive cells. We performed the enrichment twice before cell death analysis. One caveat of our cellular system is tagging BAK with N-terminal mCherry, which may affect folding efficiency, degradation, and BAK interactome.
(§1) We seeded cells in 24-well (100,000 cells/well), 96-well (15,000 cells/well), or 384-well (10,000 cells/well) plates coated with 10 µg/mL fibronectin. After ≥24 h of attachment and recovery, we induced cell death with Dox (up to 1000 ng/mL) and monitored SYTOX Green (25 nM) uptake by Incucyte imaging. This dye marks cells with compromised plasma membrane integrity. mC-BAK expressed before 24 h, which coincided with detectable cell death. We monitored Incucyte imaging for up to 48 h, followed by endpoint FACS analysis to measure the extent of cell death based on SYTOX Green positive cells on FACSCalibur systems (BD Biosciences). As expected, cells with low mCherry fluorescence were refractory to cell death.

[3] = system: BCL2allKO HCT116 cells reconstituted with mC-BAK; assay: Endpoint FACS analysis of SYTOX Green positive cells; format: cell-based, human; details: average, N = 3
Procedure: as §1

Molecule | autoactivation in liposome permeabilization assays [1] | also measured
M71A (0): BAK missense mutant (protein, UniProt Q16611 2-211, looked up, variant M71A) Bcl-2 homologous …: ASGQGPGPPRQECGEPALPSASEEQVAQDTEEVFRSYVFYRHQQEQEAEGVAAPADPEMVTLPLQPSSTAGQVGRQLAIIGDDINRRYDSEFQTMLQHLQPTAENAYEYFTKIATSLFESGINWGRVVALLGFGYRLALHVYQHGLTGFLGQVTRFVVDFMLHHCIARWIAQRGGWVAALNLGNGPILNVLVVLGVVLLGQFVVRRFFKS | behave similar to WT BAK | –
I81A (3): BAK missense mutant (protein, UniProt Q16611 2-211, looked up, variant I81A) Bcl-2 homologous …: ASGQGPGPPRQECGEPALPSASEEQVAQDTEEVFRSYVFYRHQQEQEAEGVAAPADPEMVTLPLQPSSTMGQVGRQLAIAGDDINRRYDSEFQTMLQHLQPTAENAYEYFTKIATSLFESGINWGRVVALLGFGYRLALHVYQHGLTGFLGQVTRFVVDFMLHHCIARWIAQRGGWVAALNLGNGPILNVLVVLGVVLLGQFVVRRFFKS | – | AUC (48 hr) of SYTOX Green counts/confluence ([2]; Dox 100 ng/mL): 55640.5; AUC (48 hr) of SYTOX Green counts/confluence ([2]; Dox 1000 ng/mL): 85389.8; flow cytometry SYTOX Green counts/confluence (48 hr) ([3]; Dox 100 ng/mL): 37.7333; flow cytometry SYTOX Green counts/confluence (48 hr) ([3]; Dox 1000 ng/mL): 54.2
I85A (4): BAK missense mutant (protein, UniProt Q16611 2-211, looked up, variant I85A) Bcl-2 homologous …: ASGQGPGPPRQECGEPALPSASEEQVAQDTEEVFRSYVFYRHQQEQEAEGVAAPADPEMVTLPLQPSSTMGQVGRQLAIIGDDANRRYDSEFQTMLQHLQPTAENAYEYFTKIATSLFESGINWGRVVALLGFGYRLALHVYQHGLTGFLGQVTRFVVDFMLHHCIARWIAQRGGWVAALNLGNGPILNVLVVLGVVLLGQFVVRRFFKS | activity comparable to WT | –
R137A: BAK mutant in helix α1 electrostatic network (protein, UniProt Q16611 2-211, looked up, variant R137A) Bcl-2 homologous …: ASGQGPGPPRQECGEPALPSASEEQVAQDTEEVFRSYVFYRHQQEQEAEGVAAPADPEMVTLPLQPSSTMGQVGRQLAIIGDDINRRYDSEFQTMLQHLQPTAENAYEYFTKIATSLFESGINWGRVVALLGFGYALALHVYQHGLTGFLGQVTRFVVDFMLHHCIARWIAQRGGWVAALNLGNGPILNVLVVLGVVLLGQFVVRRFFKS | hyperactive compared to WT | –
E46A: BAK mutant in helix α1 electrostatic network (protein, UniProt Q16611 2-211, looked up, variant E46A) Bcl-2 homologous …: ASGQGPGPPRQECGEPALPSASEEQVAQDTEEVFRSYVFYRHQQAQEAEGVAAPADPEMVTLPLQPSSTMGQVGRQLAIIGDDINRRYDSEFQTMLQHLQPTAENAYEYFTKIATSLFESGINWGRVVALLGFGYRLALHVYQHGLTGFLGQVTRFVVDFMLHHCIARWIAQRGGWVAALNLGNGPILNVLVVLGVVLLGQFVVRRFFKS | hyperactive compared to WT | –
R42A: BAK mutant in helix α1 electrostatic network (protein, UniProt Q16611 2-211, looked up, variant R42A) Bcl-2 homologous …: ASGQGPGPPRQECGEPALPSASEEQVAQDTEEVFRSYVFYAHQQEQEAEGVAAPADPEMVTLPLQPSSTMGQVGRQLAIIGDDINRRYDSEFQTMLQHLQPTAENAYEYFTKIATSLFESGINWGRVVALLGFGYRLALHVYQHGLTGFLGQVTRFVVDFMLHHCIARWIAQRGGWVAALNLGNGPILNVLVVLGVVLLGQFVVRRFFKS | hyperactive compared to WT | –
